Reference: patent US20230357339A1, “Development of Cell-Permeable Truncated SOCS3 SH2 Domain (CP-SD) Recombinant Protein for Anti-Obesity Agent” (Cellivery Therapeutics, Inc., priority 2020, published 2023)

B1: aMTD524-P2-1-23: SEQ ID No. 280; contains SH2 (L69-Q96), SH2 (H125-M128) and SH2 (A164-N185) (protein)
chain: AVALIVVPALAPEAAAKLIRDSSDQRHFFTLSVKTQSGTKNLRIQEAAAKEAAAKEAAAKEAAAKHHYMGSGSGSGSAYYIYSGGEKIPLVLSRPLSSN
modifications: Amino acid Sequence of aMTD-P2-1-23
B2: aMTD524-36: SEQ ID No. 282; truncate from the SH2 domain containing aMTD and SH2 (L69-Q96) (protein)
chain: AVALIVVPALAPEAAAKGFYWSAVTGGEANLLLSAEPAGTFLIRDSSDQRHFFTLSVKTQSGTKNLRIQCEGGSFSLQSDPRSTQPVPRFDCVLKLVHHYMGSGSGSGSAYYIYSGGEKIPLVLSRPLSSN
modifications: Amino acid Sequence of aMTD524-36
B3: aMTD524-P2-1-6: SEQ ID No. 268; his tag-conjugated aMTD524-P2-1 (protein)
chain: GSSHHHHHHSSGLVPRGSHMAVALIVVPALAPEAAAKLIRDSSDQRHFFTLSVKTQSGTKNLRIQ
modifications: His tag; Amino acid Sequence of aMTD524-P2-1-6
B4: aMTD830-P2-1B: SEQ ID No. 255; aMTD830-replaced P2-1B, SH2 (L69-Q96) and SDB (protein)
chain: IALVAAPVALVPEAAAKLIRDSSDQRHFFTLSVKTQSGTKNLRIQEAAAKEAAAKEAAAKMAEQSDKDVKYYTLEEIQKHKDSKSTWLILHHKVYDLTKFLEEHPGGEEVLGEQAGGDATENFEDVGHSTDARELSKTYIIGELHPDDRSKIAKPSETL
modifications: Amino acid Sequence of aMTD830-P2-1B
notes: aMTD830-replaced P2-1B, SH2 (L69-Q96) and SDB
B5: aMTD524-37: SEQ ID No. 283; truncate from the SH2 domain containing aMTD and SH2 (L69-Q96) (protein)
chain: AVALIVVPALAPEAAAKLIRDSSDQRHFFTLSVKTQSGTKNLRIQCEGGSFSLQSDPRSTQPVPRFDCVLKLVHHYM
modifications: Amino acid Sequence of aMTD524-37
B6: aMTD830-P2-1-24B: SEQ ID No. 261; aMTD830-replaced P2-1-24B (protein)
chain: IALVAAPVALVPEAAAKLIRDSSDQRHFFTLSVKTQSGTKNLRIQGGGGSGGGGSGGGGSGGGGSHHYMGSGSGSGSAYYIYSGGEKIPLVLSRPLSSNEAAAKEAAAKEAAAKMAEQSDKDVKYYTLEEIQKHKDSKSTWLILHHKVYDLTKFLEEHPGGEEVLGEQAGGDATENFEDVGHSTDARELSKTYIIGELHPDDRSKIAKPSETL
modifications: Amino acid Sequence of aMTD830-P2-1-24B
notes: aMTD830-replaced P2-1-24B
B7: aMTD524-P2-1-21: SEQ ID No. 279; contains SH2 (T52-A62), (L69-Q96), (V120-M128) and (A164-N185) (protein)
chain: TGGEANLLLSAGSGSGSGSGSGSGSGSAVALIVVPALAPEAAAKLIRDSSDQRHFFTLSVKTQSGTKNLRIQGGGGSGGGGSGGGGSGGGGSVLKLVHHYMGSGSGSGSAYYIYSGGEKIPLVLSRPLSS
modifications: Amino acid Sequence of aMTD-P2-1-21
B8: aMTD524-P2-1-24: SEQ ID No. 281; same regions as aMTD524-P2-1-23 with different linkers (protein)
chain: AVALIVVPALAPEAAAKLIRDSSDQRHFFTLSVKTQSGTKNLRIQGGGGSGGGGSGGGGSGGGGSHHYMGSGSGSGSAYYIYSGGEKIPLVLSRPLSSN
modifications: Amino acid Sequence of aMTD-P2-1-24
notes: same regions as aMTD524-P2-1-23 with different linkers
B9: aMTD830-P2-1-32B: SEQ ID No. 266; aMTD830-replaced P2-1-32B (protein)
chain: IALVAAPVALVPEAAAKLIRDSSDQRHFFTLSVKTQSGTKNLRIQGGGGSGGGGSGGGGSGGGGSAYYIYSGGEKIPLVLSRPLSSNEAAAKEAAAKEAAAKMAEQSDKDVKYYTLEEIQKHKDSKSTWLILHHKVYDLTKFLEEHPGGEEVLGEQAGGDATENFEDVGHSTDARELSKTYIIGELHPDDRSKIAKPSETL
modifications: Amino acid Sequence of aMTD830-P2-1-32B
notes: aMTD830-replaced P2-1-32B

Legend:
[1] = test system: leptin resistant mHypoA2/21-SOCS3 cells; assay: Biological activity test: overcoming leptin resistance (STAT3 phosphorylation, western blot); format: cell-based; conditions: protein treated 1 hour, then 10 ng/mL mouse leptin 30 minutes
Method: To validate that cell-permeable truncated SOCS3 recombinant protein can overcome leptin resistance, the purified recombinant proteins were treated at leptin resistant cell line mHypoA2/21-SOCS3. mHypoA2/21-SOCS3 was produced by over-expressing SOCS3 at mouse hypothalamic neuron mHypoA2/21, and cultured using DMEM containing 10% FBS and 7 mg/mL geneticin. Cells were seeded at the concentration of 150000 cells/60 mm plate and on the following day the medium was replaced with 7 mg/mL geneticin containing serum free DMEM and starved the cells for the following 16 hours. Purified CP-SD recombinant proteins were diluted into 7 mg/mL geneticin containing serum free DMEM and treated for 1 hour, proteins were removed, and 10 ng/mL mouse leptin was treated for 30 minutes.
The cells were lysed in a lysis buffer (150 mM NaCl, 20 mM Tris, 1% triton-X-100, pH 7.5) containing protease inhibitor and […], incubated for 20 min at 4° C., and centrifuged at 13,000 rpm for 20 min at 4° C. Equal amounts of lysates were separated on 10% SDS-PAGE gels and transferred to a PVDF membrane. The membranes were blocked using TBST buffer 5% bovine serum albumin (BSA) and for western blot analysis incubated with the following antibodies diluted in TBST buffer 5% bovine serum albumin (BSA): anti-phospho-STAT3 (Cell Signaling Technology, USA), anti-STAT3 (Cell Signaling Technology, USA) and anti-myc (Cell Signaling Technology, USA), then HRP conjugated anti-rabbit secondary antibody (Cell Signaling Technology, USA) and anti-mouse secondary antibody (Cell Signaling Technology, USA). The protein bands were detected with ECL solution using luminescent image analyzer (ImageQuant LAS 500, GE Healthcare).

[2] = Turbidity with thermal stress of 37° C. (absorbance at 350 nm); format: physicochemical; conditions: for stability (turbidity) in serum free medium: thermal stress of 37° C.
Method: The recombinant proteins were diluted in their storage buffer or serum free DMEM medium and added into wells of a clear 96 well plate. The plate was incubated at 37° C. and the absorbance of each well was measured at 350 nm every 30 minutes in a microplate reader (Synergy H1, BioTek).

[3] = biological target: T1, Phosphorylated human leptin receptor peptide (QRQPFVK[pY] ATLISNSK), phosphorylated Y985 (Homo sapiens, UniProt P48357); assay: Binding affinity to leptin receptor by isothermal titration calorimetry (ITC); conditions: leptin receptor peptide phosphorylated at Y985, storage buffer pH 4.0
T1 construct: Phosphorylated human leptin receptor peptide (QRQPFVK[pY] ATLISNSK); purchased Anygen (Gwangju, Korea); host or cells: synthetic peptide
Method: The binding affinity of cell-permeable truncated SOCS3 SH2 domain recombinant proteins to leptin receptor was analysed using isothermal titration calorimetry (ITC). Phosphorylated human leptin receptor peptide (QRQPFVK[pY] ATLISNSK) used in the experiment was acquired from Anygen (Gwangju, Korea). The binding affinity of aMTD524-P2-1-6 was measured using the following methods. Leptin receptor peptide was dissolved into DMSO and was diluted into storage buffer (50 mM sodium acetate, 50 mM NaCl, pH 4.0) to reach a final peptide concentration of 400 μM and final DMSO concentration of 0.5%. Using dialysis method, purified aMTD524-P2-1-6 was maintained at the identical batch storage buffer, and was diluted to reach the final concentration of 50 μM. Next, binding affinity was measured using ITC (Auto-ITC200).

| Kd [3] [µM] | Molecule | overcoming leptin resistance (STAT3 phosphorylation level) [1] | stability (turbidity) in storage buffer ([2]; thermal stress of 37° C. for 3 hours, storage buffer) | stability (turbidity) in serum free medium [2] |
| --- | --- | --- | --- | --- |
|  | B1 | did not |  |  |
|  | B2 | did not overcome leptin resistance |  |  |
| 8 | B3 | overcame leptin resistance | stable |  |
|  | B4 | overcame leptin resistance |  | stable |
|  | B5 | did not overcome leptin resistance |  |  |
|  | B6 | overcame leptin resistance |  | stable |
|  | B7 | did not |  |  |
|  | B8 | overcame leptin resistance |  | instability |
|  | B9 | overcame leptin resistance |  | stable |
